Non-standard residues stand in square brackets, D forms with d. No end group written: not given here. pS = N[C@@H](COP(=O)(O)O)C(=O)O

Sequences and labels used below:
B1: Pin1 WW domain (domain or fragment)
chain: MADEEKLPPGWEKRMSRSSGRVYYFNHITNASQWERPSGNS
B2: CPEB1 pS210 peptide (peptide)
chain: RI[pS]PPLPF-NH2

Test in all cases: ITC
Experiment [1] has as its target CPEB1 pS144 peptide (UniProt Q9BZB8, phosphoserine at 144).
Experiment [2] has as its target CPEB1 pS184 peptide (UniProt Q9BZB8, phosphoserine at 184).
Experiment [3] has as its target CPEB1 pS248 peptide (UniProt Q9BZB8, phosphoserine at 248).
For experiment [4], the target named is CPEB1 pS138 peptide (UniProt Q9BZB8, phosphoserine at 138).
Experiment [5] has as its target CPEB1 pS423 peptide (UniProt Q9BZB8, phosphoserine at 423).
Experiment [6] concerns the target full-length Pin1 (UniProt Q13526 1-163).
Experiment [7] addresses B1.

Sequence of full-length Pin1 (Q13526 whole entry): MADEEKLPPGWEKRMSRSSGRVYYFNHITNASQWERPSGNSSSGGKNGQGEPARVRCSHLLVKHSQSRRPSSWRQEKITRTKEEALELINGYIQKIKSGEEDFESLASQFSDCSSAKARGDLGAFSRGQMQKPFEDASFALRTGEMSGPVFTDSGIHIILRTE

As to B1, the Kd in experiment [1] is 75.4 µM; in experiment [2], 28.6 µM; in experiment [3] it was 47.6 µM; in experiment [4] it was 71.3 µM; in experiment [5], 158 µM.
B2: the results for the Kd in experiment [6] and in experiment [7] were 32.3 µM and 30.3 µM, respectively.

The values above are taken from article PMC4601027 (2015).
